Key:
[1] = system: SW620 metastatic colorectal cancer cells; assay: Growth of SW620 cells in culture, monoclonal antibodies; assay type: cell-based, human; conditions: for reduction of growth of SW620 cells compared to control antibody: MAb1-MAb4, 48 hours; for Cell numbers: SW620, 48 hours, treated every 12 hours, average cells per well minus cells seeded (T0), CT antibody-T0 158556
Method: (§1) SW620 cells were seeded into 6-well plates, serum-starved overnight, then treated every 12 hours with PBS, 3 microgram/ml control antibody (Mouse anti-human IgG1, Calbiochem, Ref #411451) or four different anti-PG monoclonal antibodies, MAb3, MAb4, MAb2, and MAb1. The experiment was carried out in duplicate, and the technician was blinded as to the contents of the treatment solutions. Forty-eight hours after the start of the treatments the number of surviving cells in each well were counted six times and averaged.
In a separate experiment, SW620 cells were seeded into 6-well plates (100,000 cells per well) and treated similarly above with 5 μg/ml of anti-hPG monoclonal antibodies 5-23 (i.e., MAb5-MAb23) or 5 μg/ml control antibody. After 48 hours the number of viable cells were counted from which the number of cells at the beginning of the experiment (i.e., T0) were subtracted. The number of surviving cells in the specific antibody treated wells was then expressed as a percentage of the control.

[2] = system: CRC1 primary colorectal cancer cells; assay: Spheroid formation by CRC1 cells in low adherence culture, monoclonal antibodies; assay type: cell-based, human; conditions: CRC1, 3 μg/ml; p<0.05 one-way ANOVA with Bonferroni; FIG. 20
Method: CRC1 cells were obtained from a human colon carcinoma biopsy according to standard procedures. After being dissociated in Accumax (Sigma) for 45 minutes at 37° C., cells were plated in low adherence 96 well-plates (Corning) at a density of 100 cells per well in M11 medium (DMEM/F12 with 20 ng/ml EGF, 10 ng/ml FGF, 20 μg/ml insulin, N2 supplement, 2 μg/ml cyproflaxin, 5 μg/ml gentamycin and 3 mg/ml glucose). For each treatment arm, 10 wells were used. Starting on the first day, cells were treated twice daily with one of four different anti-progastrin monoclonal antibodies, MAb5, MAb8, MAb13 or MAb16 (3 μg/ml) or the same concentration of monoclonal antibody P3X63Ag8 (ATCC, Ref TIB-9) or medium with no antibody added as controls. Thereafter, treatment was performed once daily for 8 days. Spheres were photographed daily for subsequent counting. All experiments were carried out in blinded fashion. After the conclusion of the experiment, the number of spheres from each treatment art was counted.

[3] = system: CRC1 primary colorectal cancer cells; assay: Pre-treatment of CRC1 cells: ALDH1 expressing cells by FACS; assay type: cell-based, human; conditions: 72 hours in conventional adherent culture; FIG. 22
Method: (§2) CRC1 cells were obtained from a human colon carcinoma biopsy according to standard procedures. After being dissociated in Accumax (Sigma) for 45 minutes at 37° C., CRC1 cells (100,000 cells/well) were grown under conventional adherent culture conditions in serum free DMEM medium for 72 hours in the presence or absence of anti-hPG monoclonal antibodies MAb5, MAb8, MAb13 or MAb16. Experiments were carried out in blinded fashion. At the end of the treatment period, two different assays were performed on the cells. First, the percentage of cells expressing ALDH1, a marker of colorectal cancer stem cells, was determined by FACS. In the second assay, for each treatment group, 200 cells/well were plated in six wells of a low adherence 24-well plate in 500 μl of serum-free M11 medium supplemented with bFGF and EGF, and grown for 7 days without further treatment. At the end of this period, photographs were taken and the number of spheres per well was counted, and sphere surface area measured.

[4] = system: CRC1 primary colorectal cancer cells; assay: Pre-treatment of CRC1 cells: spheroids in low adherence culture; assay type: cell-based, human; conditions: 72 hours pre-treatment, then 7 days low adherence without antibody, FIG. 23, MAb5, MAb8, MAb16 p<0.05
Method: as §2

[5] = system: T84 metastatic colorectal cancer cells; assay: Growth of T84 cells in culture; assay type: cell-based, human; conditions: FIG. 7; P value 0.0370 Mann Whitney
Method: as §1
The methods employed for this experiment were similar to those used to measure the effect of anti-progastrin monoclonal antibodies on SW620 cells, except that the anti-progastrin antibody used was anti-hPG MAb3.

[6] = system: SW620 cells; assay: Hepatic metastases by SW620 cell xenografts in nude mice, monoclonal antibody; assay type: in vivo, BALBc/nude mice
Method: A total of 5×10^6 SW620 cells were injected into the spleen of each of 20 BALBc/nude mice at age 5 weeks old. Two minutes after injection of the cells, the spleens were surgically removed. After recovery, mice were randomly divided into two groups, each of which was subjected to one of two different treatments. Specifically, 10 mice were injected with a control antibody (anti-human IgG1Fc) diluted in PBS, and 10 mice were injected with anti-hPG monoclonal antibody MAb3, also diluted in PBS. The dose of antibodies was 8 mg/kg in a volume of 150 microliters. Injections were made intraperitoneally twice per week for six weeks. Once per week each mouse was weighed. Six weeks later, after the course of injections was finished, the mice were euthanized with carbon dioxide and the livers were removed and the number of visible metastases present was counted.

[7] = system: T84 metastatic colorectal cancer cells; assay: Pre-treatment of T84 cells: ALDH1 positive cells (ALDEFLUOR); assay type: cell-based, human; conditions: pre-treatment 72 hours, 1 μg/ml, FIG. 24
Method: (§3) Cells tested were from the metastatic colorectal cancer cell lines T84 and SW620. Cells were first grown in conventional adherent cultureware for 72 hours in the presence of the anti-progastrin monoclonal antibody MAb3 (1 μg/ml), a control monoclonal antibody, the chemotherapeutic agent 5-fluorouracil (5FU 10 μM), or the solvent dimethylsulfoxide (DMSO). After treatment, cells were subjected to two assays. In the first, the percentage of cells positive for the cancer stem cell marker ALDH1 were determined using an ALDEFLUOR kit (Stemcell Technologies). In the second assay, for each treatment group, cells were plated into six wells of low adherence 96 well-plates at a density of 500 cells per well in 100 μl of serum-free medium containing bFGF and EGF and grown for 11 days without further treatment. After the end of this period, the number of spheroids per well was then counted.

[8] = system: SW620 metastatic colorectal cancer cells; assay: Pre-treatment of SW620 cells: ALDH1 positive cells (ALDEFLUOR); assay type: cell-based, human; conditions: pre-treatment 72 hours, 1 μg/ml, FIG. 25
Method: as §3

[9] = system: SW620 colorectal cancer cells; assay: Cells isolated from SW620 metastases of treated nude mice: cell count and spheroid growth; assay type: in vivo, BALBc/nude mice
Method: (§4) Using standard techniques, immunodeficient BALBc/nude mice were given intra-splenic injections of human metastatic SW620 colorectal cancer cells. The mice were then administered the anti-hPG monoclonal antibody MAb3 or a control monoclonal antibody twice per week for a total of six weeks. For each antibody, the dose was 8 mg/kg. At the end of the treatment period tissue was dissected from metastases from both treated and control mice. Tumor cells were disaggregated by treatment of the dissected tissue with Accumax, filtered and counted. A total of 23,800 viable tumor cells were obtained from metastatic tissue from the mice treated with MAb3, and 36,400 were obtained from control mice.
(§5) For the spheroid test, for each of the treated and control cells, 2,000 cells/well were seeded into five wells of low adherence cultureware in M11 medium supplemented with bFGF and EGF. Cells were grown for seven days, and then the number of spheroids that formed in each well was counted. For the transplantation test, spheroids developing from cells isolated from treated and control metastases were pooled, disaggregated and counted. A total of 20,000 cells were obtained from spheroids derived from treated metastases, and 110,000 cells were obtained from spheroids derived from control metastases. […] Tumor volume was then calculated through time in both animals.

[10] = system: SW620 colorectal cancer cells; assay: Initiation of new tumors after transplantation of cells from treated metastases; assay type: in vivo, BALBc/nude mice; conditions: 6,500 cells subcutaneously into thighs of two nude mice; tumor volume; FIG. 29
Method: as §4, §5

B1: MAb4: murine N-terminal anti-hPG monoclonal antibody, hybridoma 20D2C3G2, VH SEQ ID NO:14, VL SEQ ID NO:15 (antibody, V domains shown)
VH: QVQLQQSGAELMKPGASVKISCKATGYTFSSSWIEWLKQRPGHGLEWIGEFLPGSGSTDYNEKFKGKATFTADTSSDTAYMLLSSLTSEDSAVYYCATDGNYDWFAYWGQGTLVTVSA
VL: DLVMTQTPLSLPVSLGDQASISCRSSQSLVHSSGVTYLHWYLQKPGQSPKLLIYKVSNRFSGVPDRFSGSGSGTDFTLKISRVEAEDLGVYFCSQSTHVPPTFGSGTKLEIK
In the case of B1, the “reduction of growth of SW620 cells compared to control antibody” value [1] is reported as “more effective than the others” and the Cell numbers [1] is reported as 52984.

B2: MAb8: murine C-terminal anti-hPG monoclonal antibody, hybridoma 1C10D3B9, VH SEQ ID NO:59, VL SEQ ID NO:63 (antibody, V domains shown)
VH: EVQLVESGGGLVKPGGSLKLSCAASGFTFTTYAMSWVRQTPEKRLEWVATISSGGTYTYYPDSVKGRFTISRDNAKNALYLQMSSLRSEDTAMYYCATQGNYSLDFWGQGTSLTVSS
VL: DIVMTQAASSNPVTLGTSASISCRSSKSLRHTKGITFLYWYLQKPGQSPQLLIYQMSNLASGVPDRFSSSGSGTDFTLRISRVEAEDLGVYYCAQNLELPLTFGAGTKLELK
For B2, the “number of spheroids formed compared to non-specific antibody and medium alone” value [2] was “effective to reduce the number spheroids”, the “number of CRC1 cells expressing ALDH1 compared to control” value [3] was “reduce the number CRC1 primary colorectal cancer cells expressing ALDH1” and the “number of spheroids formed after pre-treatment compared to control” value [4] was “effective to reduce the number of spheroids”.

B3: MAb3: murine N-terminal anti-hPG monoclonal antibody, hybridoma 6B5B11C10, VH SEQ ID NO:12, VL SEQ ID NO:13 (antibody, V domains shown)
VH: EVQLQQSGTVLARPGASVKMSCKASGYIFTSYWVHWVKQRPGQGLEWIGGFYPGNSDSRYNQKFKGKATLTAVTSASTAYMDLSSLTNEDSAVYFCTRRDSPQYWGQGTTLTVSS
VL: DVLMTQTPLSLPVSLGDQASISCRSSQSIVHSNGNTYLEWYLQKPGQSPKLLIYKVSNRFSGVPDRFSGSGSGTDFTLKISRLEAEDLGVYYCFQGSHVPFTFGGGTKLEIK
For B3, the “reduction of growth of SW620 cells compared to control antibody” value [1] was “more effective than the others”, the Cell numbers [1] was 50056 and the “reduction of growth of T84 cells compared to control antibody” value [5] was “effective to reduce the growth of T84 metastatic colorectal cancer cells”. For the same molecule, the “mean weight of liver metastases” value ([6]; 8 mg/kg i.p. twice per week, six weeks, control mice 167 mg, not statistically significant) was 96 mg, the “decrease of mean number of metastases versus control antibody” value ([6]; 8 mg/kg i.p. twice per week, six weeks, p=0.0372) was 41% and the “mean number of metastases” value ([6]; 8 mg/kg intraperitoneally twice per week for six weeks, control antibody 7.3) was 4.3. For the same molecule, the “number of ALDH1 positive cells compared to control antibody” value [7] was “reduced”, the “number of ALDH1 positive cells compared to control antibody” value [8] was “reduced” and the “viable tumor cells obtained from metastatic tissue” value ([9]; 8 mg/kg twice per week for six weeks, control mice 36,400) was 23,800. The “growth as spheroids of cells isolated from in vivo metastases” value ([9]; mice treated 8 mg/kg twice per week six weeks, 2,000 cells/well, seven days, FIG. 28) was “reduced” and the “ability to initiate new tumor growth after transplantation” value [10] was “reduced”.

Reference: US9217032B2, “Methods for treating colorectal cancer” (LES LABORATOIRES SERVIER, priority 2010, dated 2015)
